{"source": "paper PMC8794893", "about": "(Proceedings of the National Academy of Sciences of the …, 2022)", "binders": {"B1": {"name": "recombinant Archaeoglobus fulgidus DsrD with C-terminal His-tag (natural protein, Archaeoglobus fulgidus VC-16, UniProt P70742 1-77, looked up)", "chain": "MADYTEEDKQKVLAQLSKKTWKIPELAKILKMDKKVVKKIVQDLINEGVAGYWSSGSTTYVATKEYIEELEKKRAEG", "modifications": "RED-NHS dye on amines (Monolith NT Protein Labeling Kit RED-NHS second generation), in the MST experiment only"}}, "key": {"[1]": {"target": "T1, Archaeoglobus fulgidus DsrAB dissimilatory sulfite reductase (Archaeoglobus fulgidus VC-16 …, UniProt Q59109 1-418; Q59110 1-366)", "T1 sequence (Q59109 whole entry, chain 1 of 2)": "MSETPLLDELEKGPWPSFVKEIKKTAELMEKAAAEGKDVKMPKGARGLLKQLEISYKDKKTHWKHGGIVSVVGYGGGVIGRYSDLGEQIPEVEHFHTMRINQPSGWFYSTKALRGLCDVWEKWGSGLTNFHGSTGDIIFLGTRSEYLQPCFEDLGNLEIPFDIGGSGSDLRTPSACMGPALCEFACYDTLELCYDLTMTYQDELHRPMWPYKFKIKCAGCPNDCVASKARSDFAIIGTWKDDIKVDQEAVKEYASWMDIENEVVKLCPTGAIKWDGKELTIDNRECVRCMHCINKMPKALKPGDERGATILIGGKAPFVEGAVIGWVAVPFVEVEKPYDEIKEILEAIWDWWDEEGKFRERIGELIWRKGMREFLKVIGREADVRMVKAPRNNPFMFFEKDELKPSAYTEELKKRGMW", "T1 sequence (Q59110 whole entry, chain 2 of 2)": "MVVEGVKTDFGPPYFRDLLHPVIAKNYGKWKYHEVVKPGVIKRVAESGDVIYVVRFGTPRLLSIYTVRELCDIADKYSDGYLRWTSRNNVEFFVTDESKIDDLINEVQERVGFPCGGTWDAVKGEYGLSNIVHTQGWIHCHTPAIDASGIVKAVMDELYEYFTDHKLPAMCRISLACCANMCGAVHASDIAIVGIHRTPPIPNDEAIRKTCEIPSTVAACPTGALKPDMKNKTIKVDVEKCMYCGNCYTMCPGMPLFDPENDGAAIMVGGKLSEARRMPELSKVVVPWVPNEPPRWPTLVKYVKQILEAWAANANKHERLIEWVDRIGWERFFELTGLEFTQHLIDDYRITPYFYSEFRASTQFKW", "assay": "MST"}, "[2]": {"target": "T1, Archaeoglobus fulgidus DsrAB …", "assay": "SPR"}}}
{"binder": "B1", "values": [{"measurement": "Kd", "setting": "[1]", "result": "350 ± 60", "unit": "nM"}, {"measurement": "Kd", "setting": "[2]", "result": "540 ± 20", "unit": "nM"}]}
